One block for each molecule: values may come before it. Bridge positions count the residues as written; N and C are the ends. Square brackets hold non-standard residues; d marks the D form. NOTA‑1 = 1,4,7-triazacyclononane-N,N',N''-triacetic acid phenyl thiourea; Pro(trans-4-Ph) = O=C(O)[C@@H]1C[C@@H](c2ccccc2)CN1; Trp(7-Me) = Cc1cccc2c(C[C@H](N)C(=O)O)c[nH]c12; Pro(cis-4-F) = O=C(O)[C@@H]1C[C@H](F)CN1; Phe(4-Me) = Cc1ccc(C[C@H](N)C(=O)O)cc1; Pro(4S-Me) = C[C@@H]1CN[C@H](C(=O)O)C1; Pro(4R-Me) = C[C@H]1CN[C@H](C(=O)O)C1
Key:
Human Granzyme B [1] = biological target: T1, Human Granzyme B (Homo sapiens, UniProt P10144); format: in vivo; set-up: Ten million human peripheral blood mononuclear cell (PBMC) were engrafted in immunocompromised NOG (NOD/Shi-scid/IL-2Rγ) mice; endogenous in cells; host or cells: human PBMC (donor-derived) engrafted in NOG mice; settings: 18F-labeled peptides, i.v., mice, static PET/CT 1 h after injection
T1 sequence (P10144 21-247): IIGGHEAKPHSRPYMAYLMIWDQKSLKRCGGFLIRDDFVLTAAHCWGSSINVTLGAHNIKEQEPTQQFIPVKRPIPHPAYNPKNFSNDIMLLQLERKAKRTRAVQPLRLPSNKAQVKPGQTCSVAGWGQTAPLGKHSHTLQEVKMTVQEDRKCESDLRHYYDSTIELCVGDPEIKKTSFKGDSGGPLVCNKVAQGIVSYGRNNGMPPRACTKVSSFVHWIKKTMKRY
Procedure: Diseased model: Graft versus host disease (GvHD) model was selected to evaluate radiolabeled granzyme-B peptides due to presence of human granzyme-B after onset of disease. Ten million human peripheral blood mononuclear cell (PBMC) were engrafted in immunocompromised NOG (NOD/Shi-scid/IL-2Rγ) mice. Body weight was monitored routinely, once the mice started to lose weight (indication of onset of disease), PET/CT scans were performed. To determine target specificity, NOG mice without human PBMC were used as control. […] Mice were intravenously injected with approximately 150 uCi (35 Ci/mmol) of ^18F-labeled peptides and 45-minute whole body static PET/CT scans were performed 1 h after injection. Attenuation correction was performed using low-dose CT scan.

Human Granzyme B [2] = biological target: T1, Human Granzyme B; assay: Binding of scrambled control peptide to human granzyme-B (method not given); set-up: Ten million human peripheral blood mononuclear cell (PBMC) were engrafted in immunocompromised NOG (NOD/Shi-scid/IL-2Rγ) mice; endogenous in cells; host or cells: human PBMC (donor-derived) engrafted in NOG mice
human Granzyme B [3] = biological target: T2, human Granzyme B (human, UniProt P10144 21-247); assay: SPR, Biacore 8k+, hGranzyme B captured on SA chip, single cycle kinetics, 1:1 model; Compound 83a, observed m/z 913.2
T2 construct: Captured on a Series S Streptavidin chip for SPR; also called hGranzyme B; GzmB
T2 sequence (P10144 21-247 limits assumed): as the sequence (P10144 21-247) above
Procedure: (§1) The kinetics of test peptide binding to human Granzyme B (hGranzyme B) was determined by SPR. All experiments were performed at 25° C. using the Biacore 8k+ instrument (Cytiva, Marlborough, MA). The Biacore 8k+ Insight Evaluation Software Version 3.0 was used to fit the data with a 1:1 binding model to determine the association rate constant kₐ (M⁻¹s⁻¹, where “M” ~equals molar and “s” ~equals seconds) and the dissociation rate constant kd (s⁻¹). These rate constants were used to calculate the equilibrium dissociation constant. KD (M)=kd/kₐ.
(§2) To measure the binding kinetics of peptides of interest, surfaces were prepared by a capture method to a Series S Streptavidin (SA) chip using a 1×HBS-EP+ running buffer (Cytiva). hGranzyme B was diluted to 10 μg/mL in IX HBS-EP+ and flowed over spot 2 of each flow cell on the chip at a flow rate of 10 ul/min for 20 s to achieve a level of capture of ~1100 RU. […] Binding kinetics were measured using single cycle kinetics at 25° C. by injecting 5 concentrations with 3-fold serial dilutions of test peptides from 0.01 μM to 1 μM. […]
(§3) Peptide dilution series included 2 zero concentration points (no compound) which were averaged and subtracted from the peptide concentration injection as DMSO control responses. […] Corrected response data were analyzed using the Biacore 8k+ Evaluation Software Version 3.0 according to the manufacturer. […]

human Granzyme B [4] = biological target: T2, human Granzyme B; assay: SPR, Biacore 8k+, hGranzyme B captured on SA chip, single cycle kinetics, 1:1 model; Compound 62a, observed m/z 914.7
Procedure: as §1, §2, §3

human Granzyme B [5] = biological target: T2, human Granzyme B; assay: SPR, Biacore 8k+, hGranzyme B captured on SA chip, single cycle kinetics, 1:1 model; Compound 42a, observed m/z 944.0
Procedure: as §1, §2, §3

human Granzyme B [6] = biological target: T2, human Granzyme B; assay: SPR, Biacore 8k+, hGranzyme B captured on SA chip, single cycle kinetics, 1:1 model; Compound 66a, observed m/z 912.5
Procedure: as §1, §2, §3

human Granzyme B [7] = biological target: T2, human Granzyme B; assay: SPR, Biacore 8k+, hGranzyme B captured on SA chip, single cycle kinetics, 1:1 model; Compound 69a, observed m/z 912.6
Procedure: as §1, §2, §3

human Granzyme B [8] = biological target: T2, human Granzyme B; assay: SPR, Biacore 8k+, hGranzyme B captured on SA chip, single cycle kinetics, 1:1 model; Compound 86a, observed m/z 912.9
Procedure: as §1, §2, §3

human Granzyme B [9] = biological target: T2, human Granzyme B; assay: SPR, Biacore 8k+, hGranzyme B captured on SA chip, single cycle kinetics, 1:1 model; Compound 41a, observed m/z 912.9
Procedure: as §1, §2, §3

Molecule: {CH2CO}-FNFEDQS[Pro(cis-4-F)]DTWQPCG-NH2 (thioether N-14) [Compound 62a]
- Kd (human Granzyme B [4]): 6.7 nM

Molecule: {CH2CO}-FNFEDQSPDTWQ[Pro(trans-4-Ph)]CG-NH2 (thioether N-14) [Compound 42a]
- Kd (human Granzyme B [5]): 2.6 nM

Molecule: {CH2CO}-FNFEDQSPDT[Trp(7-Me)]QPCG-NH2 (thioether N-14) [Compound 66a]
- Kd (human Granzyme B [6]): 11.1 nM

Molecule: {CH2CO}-FNFEDQSPDTWQ[Pro(4S-Me)]CG-NH2 (thioether N-14) [Compound 41a]
- Kd (human Granzyme B [9]): 2.5 nM

The next lines start with results.

- binding to human granzyme-B (Human Granzyme B [2]): minimal/no binding
Molecule: *F.Q.W.Q.A.S.N.E.D.D.T.P.F.*C.G.G.K(NOTA-1)·NH2) ({CH2CO}-FQWQASNEDDTPFCGGK(NOTA‑1)-NH2; thioether N-14) [scrambled peptide, 18F-labeled scrambled peptide used as negative control, reference compound]
- uptake (SUVmean) in lung, liver and bone, GvHD model versus NOG control (Human Granzyme B [1]): No significant difference was observed between lung, liver, and bone in GvHD model and NOG control

- Kd (human Granzyme B [3]): 48 nM
Molecule: {CH2CO}-FNFEDQS[Pro(4R-Me)]DTWQPCG-NH2 (thioether N-14) [Compound 83a]

- Kd (human Granzyme B [7]): 17.2 nM
Molecule: {CH2CO}-FNFEDQS[Pro(4S-Me)]DTWQPCG-NH2 (thioether N-14) [Compound 69a]

- Kd (human Granzyme B [8]): 579 nM
Molecule: {CH2CO}-FN[Phe(4-Me)]EDQSPDTWQPCG-NH2 (thioether N-14) [Compound 86a]

From US20260207798A1, “CYCLIC PEPTIDES AS PET IMAGING AGENTS OF GRANZYME B” (priority 2022, published 2026)
